This note sets out measurements from article PMC3036719, “The Multifunctional LigB Adhesin Binds Homeostatic Proteins with Potential Roles in Cutaneous Infection by Pathogenic Leptospira interrogans” (PLoS ONE, 2011).

This assay has as its target T1, LigB9-11 (Leptospira interrogans serovar …).
T1 construct: pET-20b(+) adds an initiating methionine and a C-terminal LEH6 tail; not shown: His6 (LEH6 tail), C-terminal, kept
The assay can be described thus: ELISA; host protein (1 µg per well) immobilised in microtiter wells, blocked with 20 mg/mL BSA; recombinant LigB in 20 mg/mL BSA in PBS pH 7.2, 1 h at 37°C; bound LigB detected by its polyhistidine tag; apparent Kd from the LigB concentration at half-maximal binding. Conditions: both partners purified. Background: ELISA stands for enzyme-linked immunosorbent assay.

B1: fibrinogen fragment D (complex)
chain 1: VSEDLRSRIEVLKRKVIEKVQHIQLLQKNVRAQLVDMKRLEVDIDIKIRSCRGSCSRALAREVDLKDYEDQQKQLEQVIAKDLLPSR
chain 2: DNENVVNEYSSELEKHQLYIDETVNSNIPTNLRVLRSILENLRSKIQKLESDVSAQMEYCRTPCTVSCNIPVVSGKECEEIIRKGGETSEMYLIQPDSSVKPYRVYCDMNTENGGWTVIQNRQDGSVDFGRKWDPYKQGFGNVATNTDGKNYCGLPGEYWLGNDKISQLTRMGPTELLIEMEDWKGDKVKAHYGGFTVQNEANKYQISVNKYRGTAGNALMDGASQLMGENRTMTIHNGMFFSTYDRDNDGWLTSDPRKQCSKEDGGGWWYNRCHAANPNGRYYWGGQYTWDMAKHGTDDGVVWMNWKGSWYSMRKMSMKIRPFFPQQ
chain 3: KMLEEIMKYEASILTHDSSIRYLQEIYNSNNQKIVNLKEKVAQLEAQCQEPCKDTVQIHDITGKDCQDIANKGAKQSGLYFIKPLKANQQFLVYCEIDGSGNGWTVFQKRLDGSVDFKKNWIQYKEGFGHLSPTGTTEFWLGNEKIHLISTQSAIPYALRVELEDWNGRTSTADYAMFKVGPEADKYRLTYAYFAGGDAGDAFDGFDFGDDPSDKFFTSHNGMQFSTWDNDNDKFEGNCAEQDGSGWWMNKCHAGHLNGVYYQGGTYSKASTPNGYDNGIIWATWKTRWYSMKKTTMKIIPFNRLTIGEGQQHHLGGAK
Take B1: the Kd is 26 nM.
